Test results from patent publication US20250197820A1, “NUCLEIC ACID POLYMERASE AND ITS USE IN PRODUCING NON-DNA NUCLEOTIDE POLYMERS” (UNITED KINGDOM RESEARCH AND INNOVATION, priority 2021, published 2025).

Test system: template TempNpure
Assay: Primer extension on defined-sequence template (denaturing PAGE)
Type: biochemical
Details: denaturing PAGE
Experimental: Analytical primer extension reactions were carried out in 1× Thermopol buffer (NEB) supplemented with MgSO4 (4 mM). Primer (100 nM) was extended on a template (200 nM) with appropriate nucleoside triphosphates (125-250 μM each) by purified polymerase (10-100 μg/mL) in a 10-μL reaction volume. Reactions were carried out at 65° C. Primer extension products were analysed via urea-PAGE. All extensions with MOE-NTPs on defined-sequence template TempNpure required post-synthesis template capture with a ten-fold excess of antisense template, Turbo DNase (Invitrogen) treatment, subsequent Proteinase K (NEB) treatment, and loading on the urea-PAGE gel with a ten-fold excess of antisense template. Primer extensions with MOE-NTPs on template sfGFP required polymerase concentrations of 500 μg/mL.

Row | Molecule | 2′OMe-RNA synthesis activity (in words)
1 | 2M+D614N: 2M polymerase bearing the DGLNK mutation D614N (SEQ ID NO: 5) (protein) MILDTDYITEDGKPVIRIFKKENGEFKIDYDRNFEPYIYALLKDDSAIEDVKKITAERHGTTVRVVRAEKVKKKFLGRPIEVWKLYFTHPQDQPAIRDKIKEHPAVVDIYEYDIPFAKRYLIDKGLIPMEGDEELKMLAFAIATLYHEGEEFAEGPILMISYADEEGARVITWKNIDLPYVDVVSTEKEMIKRFLKVVKEKDPDVLITYNGDNFDFAYLKKRSEKLGVKFILGREGSEPKIQRMGDRFAVEVKGRIHFDLYPVIRRTINLPTYTLEAVYEAIFGQPKEKVYAEEIAQAWETGEGLERVARYSMEDAKVTYELGKEFFPMEAQLSRLVGQSLWDVSRSSTGNLVEWFLLRKAYERNELAPNKPDERELARRRESYAGGYVKEPERGLWENIVYLDFRSLGPSIIITHNVSPDTLNREGCEEYDVAPQVGHKFCKDFPGFIPSLLGDLLEERQKVKKKMKATIDPIEKKLLDYRQRLIKILANSFYGYYGYAKARWYCKECAESVTAWGRQYLETTIREIEEKFGFKVLYADGDGFLATIPGADAETVKKKAKEFLDYINAKLPGLLELEYEGFYKRGFFVTKAKYAVIDEEDKITTRGLEIVRRNWSEIAKETQARVLEAILKHGDVEEAVRIVKEVTEKLSKYEVPPEKLVIYKQITRDLKDYKATGPHVAVAKRLAARGIKIRPGTVISYIVLKGSGRIGDRAIPFDEFDPAKHKYDAEYYIENQVLPAVERILRAFGYRKEDLRYQKTRQVGLGAWLKPKT | small enhancement
2 | 3M: Tgo polymerase as 2M but with E664R (SEQ ID NO: 4) (protein) MILDTDYITEDGKPVIRIFKKENGEFKIDYDRNFEPYIYALLKDDSAIEDVKKITAERHGTTVRVVRAEKVKKKFLGRPIEVWKLYFTHPQDQPAIRDKIKEHPAVVDIYEYDIPFAKRYLIDKGLIPMEGDEELKMLAFAIATLYHEGEEFAEGPILMISYADEEGARVITWKNIDLPYVDVVSTEKEMIKRFLKVVKEKDPDVLITYNGDNFDFAYLKKRSEKLGVKFILGREGSEPKIQRMGDRFAVEVKGRIHFDLYPVIRRTINLPTYTLEAVYEAIFGQPKEKVYAEEIAQAWETGEGLERVARYSMEDAKVTYELGKEFFPMEAQLSRLVGQSLWDVSRSSTGNLVEWFLLRKAYERNELAPNKPDERELARRRESYAGGYVKEPERGLWENIVYLDFRSLGPSIIITHNVSPDTLNREGCEEYDVAPQVGHKFCKDFPGFIPSLLGDLLEERQKVKKKMKATIDPIEKKLLDYRQRLIKILANSFYGYYGYAKARWYCKECAESVTAWGRQYLETTIREIEEKFGFKVLYADGDGFLATIPGADAETVKKKAKEFLDYINAKLPGLLELEYEGFYKRGFFVTKAKYAVIDEEDKITTRGLEIVRRDWSEIAKETQARVLEAILKHGDVEEAVRIVKEVTEKLSKYEVPPEKLVIYRQITRDLKDYKATGPHVAVAKRLAARGIKIRPGTVISYIVLKGSGRIGDRAIPFDEFDPAKHKYDAEYYIENQVLPAVERILRAFGYRKEDLRYQKTRQVGLGAWLKPKT | virtually identical synthesis activity
